9 molecules from patent US20240301038A1 can be followed below.

The experiment addresses SARS-CoV-2 native Spike (S) trimer (Acro Biosystems) (SARS-CoV-2), P0DTC2. As to the kind of experiment: ELISA on spike trimer. The settings on record: remark: other sources report otherwise. Background: An ELISA detects its analyte on a solid surface through an enzyme-linked reagent.

B1: AB-009769 (antibody, V domains shown)
VH: EVQLVESGGGLVQPGGSLRLSCAASGFTFSSYWMSWVRQAPGKGLEWVANIKQDGSEKYYVDSVKGRFTISRDNAKNSLYLQMNSLRAEDTAVYYCARSPEVLWFGDPVLDNWFDPWGQGTLVTVSS
VL: SYELTQPPSVSVSPGQTARITCSGDALPKQYAYWYQQKPGQAPVLVIYKDSERPSGIPERFSGSSSGTTVTLTISGVQAEDEADYYCQSADSSGTYPVVFGGGTKLTVL
With B1, the OD (450 nm) is 2.87 OD (450 nm).

B2: AB-009358 (antibody, V domains shown)
VH: QVHLVQSGAEVKKPGASVKISCKASGYTFTSYYVHWVRQAPGQGLEWMGIIKPSGAGTIYAQKFQGRVTMTRDTSTSTVYMELSSLISEDTAVYYCARGGGVTDRDYWGQGTLVTVSS
VL: QSALTQEASVSATVGQKVTLSCTGNTNNIGGYAVGWHQQISHGAPKTVMFGNSLPSGIPDRFSGSKSGTTASLIISGLQPEDEADYYCSTWDSSLGAVLFGGGTKLTVL
In the case of B2, the OD (450 nm) was 2.76 OD (450 nm).

B3: AB-009661 (antibody, V domains shown)
VH: QVQLVESGGGVVQPGRSLRLSCAASGFTFSSYGMHWVRQAPGKGLEWVAVISYDGSNKYYADSVKGRFTISRDNSKNTLYLQMNSLRAEDTAVYYCAKDYGDYGGMDVWGQGTTVTVSS
VL: not shown
As for B3, the OD (450 nm) was 2.86 OD (450 nm).

B4: AB-009734 (antibody, V domains shown)
VH: QVHLVQSGAEVKTPGASVRVSCKASGYTFTSHYMHWVRQAPGQGLEWMGLINPSGSGTAYPQHFQGRVTMTRDTSTTTDYMDLSSLRSEDTAMYFCARMERSGAFDLWGQGTMVTVSS
VL: EIVLTQSPGTLSLSPGERATLSCRASQTISSRYLAWYYQKPGQAPRLLIQGSSIRATGIPDRFSGSGSGTDFTLTISRLEPEDFAVYYCQHYGSSPPMYTFGQGTKLEIK
In the case of B4, the OD (450 nm) is 3.57 OD (450 nm).

B5: AB-009346 (antibody, V domains shown)
VH: EVQLVESGGGVVRPGGSLRLSCAASGFTFDDYGMSWVRQAPGKGLEWVSGINWNGGSTGYADSVKGRFTISRDNAKNSLYLQMNSLRAEDTALYYCARWPLLGISGYYHYYMDVWGKGTTVTVSS
VL: QSALTQPRSVSGSPGQSVTISCTGTSSDVGGYNYVSWYQQHPGKAPKLMIYDVSKRPSGVPDRFSGSKSGNTASLTISGLQAEDEADYYCCSYAGSYTLLFGGGTKLIVL
Take B5: the OD (450 nm) was 2.55 OD (450 nm).

B6: AB-009281 (antibody, V domains shown)
VH: EVQLVETGGGLIQPGGSLRLSCAASGFTVSSNYMSWVRQAPGKGLEWVSVIYSGGSTYYADSVKGRFTISRDNSKNTLYLQMNSLRAEDTAVYYCARDLYYYGMDVWGQGTTVTVSS
VL: DIQLTQSPSFLSASVGDRVTITCRASQGISSYLAWYQQKPGKAPKLLIYAASTLQSGVPSRFSGSGSGTEFTLTISSLQPEDFATYYCQQLNSYPTFGQGTKVEIK
On to B6, for which the OD (450 nm) is 2.6 OD (450 nm).

B7: AB-009620 (antibody, V domains shown)
VH: QITLKESGPTLVKPTQTLTLTCTFSGFSLSTSGVGVGWIRQPPGKALEWLALIYWDDDKRYSPSLKSRLTITKDTSKNQVVLTMTNMDPVDTATYYCAHHEVATVFDYWGQGTLVTVSS
VL: QSALTQPASVSGSPGQSITISCTGTSSDVGAYNYVSWYQQHPGKAPKLMIYEVSNRPSGVSNRFSGSKSGNTASLTISGLQAEDEADYYCSSYTSSSTVFGGGTKLTVL
Turning to B7, the OD (450 nm) is 2.7 OD (450 nm).

B8: AB-009615 (antibody, V domains shown)
VH: QVQLVESGGGVVQPGRSLRLSCAASGFTFSSYGMHWVRQAPGKGLEWVAVIWYDGSNKYYADSVKGRFTISRDNSKNTLYLQMNSLRAEDTAVYYCAKVGSPYCSGGSCYSGYFDYWGQGTLVTVSS
VL: not shown
Turning to B8, the OD (450 nm) is 2.8 OD (450 nm).

B9: AB-009614 (antibody, V domains shown)
VH: QVQLVESGGGVVQPGRSLRLSCAASGFTFSSYGMHWVRQAPGKGLEWVAVISYDGSNKYYADSVKGRFTISRDNSKNTLYLQMNSLRAEDTAVYYCAKDQKYYDILTGYYRSTYYYYYYGMDVWGQGTTVTVSS
VL: not shown
Turning to B9, the OD (450 nm) is 0.361 OD (450 nm).
